The record followed here is patent US20030219813A1 (Takeda / Millennium, published 2003).

To fix the notation:
B3: human SCUBE2 (SEQ ID NO:4) (other)
chain: RAAGPQEDVDECAQGLDDCHADALCQNTPTSYKCSCKPGYQGEGRQCEDIDECGNELNGGCVHDCLNIPGNYRCTCFDGFMLAHDGHNCLDVDECLENNGGCQHTCVNVMGSYECCCKEGFFLSDNQHTCIHRSEEGLSCMNKDHGCSHICKEAPRGSVACECRPGFELAKNQRDCILTCNHGNGGCQHSCDDTADGPECSCHPQYKMHTDGRSCLEREDTVLEVTESNTTSVVDGDKRVKRRLLMETCAVNNGGCDRTCKDTSTGVHCSCPVGFTLQLDGKTCKDIDECQTRNGGCDHFCKNIVGSFDCGCKKGFKLLTDEKSCQDVDECSLDRTCDHSCINHPGTFACACNRGYTLYGFTHCGDVTTIRTSVTFKLNEGKCSLKNAELFPEGLRPALPEKHSSVKESFRYVNLTCSSGKQVPGAPGRPSTPKEMFITVEFELETNQKEVTASCDLSCIVKRTEKRLRKAIRTLRKAVHREQFHLQLSGMNLDVAKKPPRTSERQAESCGVGQGHAENQCVSCRAGTYYDGARERCILCPNGTFQNEEGQMTCEPCPRPGNSGALKTPEAWNMSECGGLCQPGEYSADGFAPCQLCALGTFQPEAGRTSCFPCGGGLATKHQGATSFQDCETRVQCSPGHFYNTTTHRCIRCPVGTYQPEFGKNNCVSCPGNTTTDFDGSTNITQCKNRRCGGELGDFTGYIESPNYPGNYPANTECTWTINPPPKRRILIVVPEIFLPIEDDCGDYLVMRKTSSSNSVTTYETCQTYERPIAFTSRSKKLWIQFKSNEGNSARGFQVPYVTYDEDYQELIEDIVRDGRLYASENHQEILKDKKLIKALFDVLAHPQNYFKYTAQESREMFPRSFIRLLRSKVSRFLRPYK
notes: protein of 919 amino acids; also called recombinantly expressed SCUBE2

In data set [1] the target is B3. The experiment in a line: overexpression; method not given.
Data set [2] deals with the molecule itself. Nature of the data set: overexpression; method not given.
Data set [3] deals with T1, SCUBE1.Myc (human SCUBE1 tagged with Myc at the C-terminus, endogenous signal peptide) (human, UniProt Q8IWY4 23-988).
T1 construct: Expressed by transient transfection in HEK-293 / 293T cells; also called Myc-tagged human SCUBE1
T1 chain: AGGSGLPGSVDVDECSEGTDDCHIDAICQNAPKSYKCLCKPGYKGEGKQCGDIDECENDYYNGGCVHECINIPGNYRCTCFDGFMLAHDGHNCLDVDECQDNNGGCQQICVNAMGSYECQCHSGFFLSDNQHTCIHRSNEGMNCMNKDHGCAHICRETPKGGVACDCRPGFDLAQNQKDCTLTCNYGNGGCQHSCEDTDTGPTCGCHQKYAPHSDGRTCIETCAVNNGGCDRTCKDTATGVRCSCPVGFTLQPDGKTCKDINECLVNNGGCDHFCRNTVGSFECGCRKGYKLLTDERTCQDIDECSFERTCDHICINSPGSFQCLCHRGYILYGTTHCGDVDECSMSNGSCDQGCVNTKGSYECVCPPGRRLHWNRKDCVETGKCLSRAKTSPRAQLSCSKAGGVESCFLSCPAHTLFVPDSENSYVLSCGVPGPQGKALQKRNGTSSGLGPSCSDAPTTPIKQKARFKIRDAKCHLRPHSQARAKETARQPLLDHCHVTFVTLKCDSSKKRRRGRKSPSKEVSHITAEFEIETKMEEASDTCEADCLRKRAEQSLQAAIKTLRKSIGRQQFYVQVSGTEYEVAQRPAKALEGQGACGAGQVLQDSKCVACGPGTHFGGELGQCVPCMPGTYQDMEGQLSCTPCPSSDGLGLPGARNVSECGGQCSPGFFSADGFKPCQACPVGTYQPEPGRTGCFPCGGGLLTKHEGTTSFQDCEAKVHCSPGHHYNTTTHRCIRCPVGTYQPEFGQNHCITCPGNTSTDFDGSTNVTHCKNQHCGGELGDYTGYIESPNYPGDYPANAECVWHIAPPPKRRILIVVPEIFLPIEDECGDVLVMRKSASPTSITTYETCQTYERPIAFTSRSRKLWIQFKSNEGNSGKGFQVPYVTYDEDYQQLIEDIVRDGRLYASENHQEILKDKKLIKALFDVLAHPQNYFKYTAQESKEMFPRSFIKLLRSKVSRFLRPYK
Nature of the data set: co-immunoprecipitation of detergent lysates, anti-Myc IP, anti-Flag M2 blot (FIG. 8b). How it is done: HEK-293 cells were transfected with expression plasmids encoding Flag-tagged full-length SCUBE1, SCUBE1-D1, SCUBE1-D2 and TLR2 (control) proteins, and, two days after transfection, cells were collected and homogenized. Samples of supernatant (S10) were centrifuged at 100,000×g for 30 min to give soluble fractions (S100) and pellets (P100 membrane fraction). Pellets were resuspended in original volumes of homogenization buffer with 0.1 M Na₂CO₃ (pH 12), sonicated briefly, and then incubated on ice for 30 min. Samples were centrifuged again at 100,000×g for 30 min. to give washed fractions S100′ and pellets P100′. Each fraction was subjected to SDS-PAGE and immunoblot analysis using anti-Flag M2 antibody. […] Upon disruption by sonication, however, they are released from the membrane and can be detected in the soluble membrane fraction. […] Flag-SCUBE1 and SCUBE1.Myc were singly or co-transfected in 293T cells. As a control, SCUBE1.Myc was expressed together with Flag-tagged IL-1β receptor (Flag.IL-1R1). Immunoprecipitation (IP) and Western blot (WB) were performed using antisera as indicated. The bands indicate the presence of protein complexes that can be precipitated by one antibody and detected by another. […] The spacer and CUB sequences are not required. […] In each case, a protein complex that could be precipitated with anti-Myc antibody was detected with anti-Flag M2 antibody.

B1: human SCUBE1 (SEQ ID NO:2) (other)
chain: AGGSGLPGSVDVDECSEGTDDCHIDAICQNAPKSYKCLCKPGYKGEGKQCGDIDECENDYYNGGCVHECINIPGNYRCTCFDGFMLAHDGHNCLDVDECQDNNGGCQQICVNAMGSYECQCHSGFFLSDNQHTCIHRSNEGMNCMNKDHGCAHICRETPKGGVACDCRPGFDLAQNQKDCTLTCNYGNGGCQHSCEDTDTGPTCGCHQKYAPHSDGRTCIETCAVNNGGCDRTCKDTATGVRCSCPVGFTLQPDGKTCKDINECLVNNGGCDHFCRNTVGSFECGCRKGYKLLTDERTCQDIDECSFERTCDHICINSPGSFQCLCHRGYILYGTTHCGDVDECSMSNGSCDQGCVNTKGSYECVCPPGRRLHWNRKDCVETGKCLSRAKTSPRAQLSCSKAGGVESCFLSCPAHTLFVPDSENSYVLSCGVPGPQGKALQKRNGTSSGLGPSCSDAPTTPIKQKARFKIRDAKCHLRPHSQARAKETARQPLLDHCHVTFVTLKCDSSKKRRRGRKSPSKEVSHITAEFEIETKMEEASDTCEADCLRKRAEQSLQAAIKTLRKSIGRQQFYVQVSGTEYEVAQRPAKALEGQGACGAGQVLQDSKCVACGPGTHFGGELGQCVPCMPGTYQDMEGQLSCTPCPSSDGLGLPGARNVSECGGQCSPGFFSADGFKPCQACPVGTYQPEPGRTGCFPCGGGLLTKHEGTTSFQDCEAKVHCSPGHHYNTTTHRCIRCPVGTYQPEFGQNHCITCPGNTSTDFDGSTNVTHCKNQHCGGELGDYTGYIESPNYPGDYPANAECVWHIAPPPKRRILIVVPEIFLPIEDECGDVLVMRKSASPTSITTYETCQTYERPIAFTSRSRKLWIQFKSNEGNSGKGFQVPYVTYDEDYQQLIEDIVRDGRLYASENHQEILKDKKLIKALFDVLAHPQNYFKYTAQESKEMFPRSFIKLLRSKVSRFLRPYK
modifications: glycosylated (N-linked, tunicamycin-sensitive)
notes: protein of 988 amino acids; also called Signal peptide-CUB-EGF-like domain-containing protein 1; recombinantly expressed SCUBE1
For the molecule B1, the binding result in data set [1] and in data set [2] was “binds” throughout.

B2: Flag.SCUBE1-D2 (Flag-tagged deletion construct 2 of human SCUBE1, amino acids 26-411 of SEQ ID NO:2; spacer, 10th EGF-like domain and CUB domain deleted) (other, not shown: small tags and cut ends)
chain: SGLPGSVDVDECSEGTDDCHIDAICQNAPKSYKCLCKPGYKGEGKQCGDIDECENDYYNGGCVHECINIPGNYRCTCFDGFMLAHDGHNCLDVDECQDNNGGCQQICVNAMGSYECQCHSGFFLSDNQHTCIHRSNEGMNCMNKDHGCAHICRETPKGGVACDCRPGFDLAQNQKDCTLTCNYGNGGCQHSCEDTDTGPTCGCHQKYAPHSDGRTCIETCAVNNGGCDRTCKDTATGVRCSCPVGFTLQPDGKTCKDINECLVNNGGCDHFCRNTVGSFECGCRKGYKLLTDERTCQDIDECSFERTCDHICINSPGSFQCLCHRGYILYGTTHCGDVDECSMSNGSCDQGCVNTKGSYECVCPPGRRLHWNRKDCVETGKCLSRA
Take B2: in data set [3], the binding result is on record as “binds”.
B3: the binding result in data set [2] is recorded as “binds”.
